Experiments:
PAML_A2 = tested on: T1, PAML_A2; assay: trans-cinnamic acid formation at […] nm, Michaelis-Menten fit; assay type: biochemical, synthetic construct; details: 50 mM Tris-HCl, pH 9.2, 37 °C; read-out: L-Phe^a / KM^c
T1 construct: N-terminal 6xHis tag, E. coli BL21(DE3); tetramer

MEGA_A1 [1] = tested on: T2, MEGA_A1; assay: as above; assay type: biochemical, synthetic construct; details: 50 mM Tris-HCl, pH 9.2, 37 °C; read-out: L-Phe^a / KM^c
T2 construct: N-terminal 6xHis tag, E. coli BL21(DE3); tetramer

MEGA_A3 [2] = tested on: T3, MEGA_A3; assay: as above; assay type: biochemical, synthetic construct; details: 50 mM Tris-HCl, pH 9.2, 37 °C; read-out: L-Phe^a / KM^c
T3 construct: N-terminal 6xHis tag, E. coli BL21(DE3); tetramer

PAML_A1 [3] = tested on: T4, PAML_A1; assay: as above; assay type: biochemical, synthetic construct; details: 50 mM Tris-HCl, pH 9.2, 37 °C; read-out: L-Phe^a / KM^c
T4 construct: N-terminal 6xHis tag, E. coli BL21(DE3); tetramer

MEGA_A1 [4] = tested on: T2, MEGA_A1; assay: p-coumaric acid formation at […] nm, Michaelis-Menten fit; assay type: biochemical, synthetic construct; details: 50 mM Tris-HCl, pH 9.2, 37 °C; read-out: L-Tyr^a / KM^c
MEGA_A3 [5] = tested on: T3, MEGA_A3; assay: as above; assay type: biochemical, synthetic construct; details: 50 mM Tris-HCl, pH 9.2, 37 °C; read-out: L-Tyr^a / KM^c
PAML_A1 [6] = tested on: T4, PAML_A1; assay: as above; assay type: biochemical, synthetic construct; details: 50 mM Tris-HCl, pH 9.2, 37 °C; read-out: L-Tyr^a / KM^c
[7] = target: PAL/TAL from Rhodotorula glutinis (RgPAL) (Rhodotorula glutinis); assay: SEC-MALS; analytical SEC on Superdex200 Increase 10/300 GL in filtered PBS pH 7.4, 50 ul of ca. 1-2 mg/ml enzyme, 0.75 ml/min, miniDAWN MALS detector; self-association (tetramer and larger oligomers)
[8] = target: PAL/TAL from Trichosporon cutaneum (TcPAL) (Trichosporon cutaneum); assay: as above
purified protein [9] = substrate: N[C@@H](Cc1ccccc1)C(=O)O; assay: purified protein; assay type: biochemical, Rhodotorula glutinis; details: 50 mM Tris-HCl, pH 9.2, 37 °C
purified protein [10] = substrate: N[C@@H](Cc1ccc(O)cc1)C(=O)O; assay: purified protein; assay type: biochemical, Rhodotorula glutinis; details: 50 mM Tris-HCl, pH 9.2, 37 °C

`N[C@@H](Cc1ccccc1)C(=O)O` [L-phenylalanine] was tested, and the Km (PAML_A2) was 690 ± 150 µM, the Km (MEGA_A1 [1]) was 3830 ± 970 µM and the Km (MEGA_A3 [2]) was 350 ± 30 µM. The Km (PAML_A1 [3]) was 4480 ± 620 µM.

For `N[C@@H](Cc1ccc(O)cc1)C(=O)O` [L-tyrosine], the Km (MEGA_A1 [4]) was 400 ± 20 µM, the Km (MEGA_A3 [5]) was 50 ± 10 µM and the Km (PAML_A1 [6]) was 2690 ± 10 µM.

“PAL/TAL from Rhodotorula glutinis (RgPAL) (enzyme)” gave a stoichiometry N [7] of 4.

In the case of “PAL/TAL from Trichosporon cutaneum (TcPAL) (enzyme)”, the stoichiometry N [8] is reported as 4.

B1: RgPAL (Rhodotorula glutinis) (protein)
chain: MAPSVDSIATSVANSLSNGLHAAAAANGGDVHKKTAGAGSLLPTTETTQLDIVERILADAGATDQIKLDGYTLTLGDVVGAARRGRSVKVADSPHIREKIDASVEFLRTQLDNSVYGVTTGFGGSADTRTEDAISLQKALLEHQLCGVLPTSMDGFALGRGLENSLPLEVVRGAMTIRVNSLTRGHSAVRIVVLEALTNFLNHGITPIVPLRGTISASGDLSPLSYIAASITGHPDSKVHVDGKIMSAQEAIALKGLQPVVLGPKEGLGLVNGTAVSASMATLALTDAHVLSLLAQALTALTVEAMVGHAGSFHPFLHDVTRPHPTQIEVARNIRTLLEGSKYAVHHETEVKVKDDEGILRQDRYPLRCSPQWLGPLVSDMIHAHAVLSLEAGQSTTDNPLIDLENKMTHHGGAFMASSVGNTMEKTRLAVALMGKVSFTQLTEMLNAGMNRALPSCLAAEDPSLSYHCKGLDIAAAAYTSELGHLANPVSTHVQPAEMGNQAINSLALISARRTAEANDVLSLLLATHLYCVLQAVDLRAMEFEHTKAFEPMVTELLKQHFGALATAEVEDKVRKSIYKRLQQNNSYDLEQRWHDTFSVATGAVVEALAGQEVSLASLNAWKVACAEKAIALTRSVRDSFWAAPSSSSPALKYLSPRTRVLYSFVREEVGVKARRGDVYLGKQEVTIGTNVSRIYEAIKSGRIAPVLVKMMA
notes: full-length codon-optimized gene, N-terminal 6xHis tag, pET22b(+), E. coli BL21(DE3); homotetramer; MIO cofactor from Ala-Ser-Gly
With B1 the Km (purified protein [9]) was 1350 ± 100 µM, the kcat (purified protein [9]) was 8.95 ± 0.37 s⁻¹ and the kcat/Km (purified protein [9]) was 6660 ± 259 M⁻¹ s⁻¹. For the same molecule, the Km (purified protein [10]) was 280 ± 10 µM, the kcat (purified protein [10]) was 1.71 ± 0.11 s⁻¹ and the kcat/Km (purified protein [10]) was 6300 ± 288 M⁻¹ s⁻¹.
